In test [1] the target is apo A-I/B-100 fusion protein expressed by plasmid 137 (beta-galactosidase / apo A-I / apo B-100) (human). As to the kind of experiment: ELISA, plate coated with 1/4 dilution of the 137 stock, HRPO-labeled AI-11 1:1000. In general terms: In an ELISA, binding on a coated surface is turned into a signal by an enzyme label.
The target is the same in test [2]. As to the kind of experiment: ELISA, plate coated with 1/8 dilution of the 137 stock, HRPO-labeled AI-11 1:1000.
Test [3] has the same target. As to the kind of experiment: ELISA, plate coated with 1/16 dilution of the 137 stock, HRPO-labeled AI-11 1:1000.
Test [4] has the same target. Description: ELISA, plate coated with 1/32 dilution of the 137 stock, HRPO-labeled AI-11 1:1000.
Test [5] shares this target. Description: ELISA, plate coated with 1/64 dilution of the 137 stock, HRPO-labeled AI-11 1:1000.
The target in test [6] is control protein from cells containing plasmid pUR291 (beta-galactosidase without an apolipoprotein insert) (Escherichia coli (strain K12)) [β-galactosidase: P00722]. Description: ELISA, plate coated with 1/4 dilution of the pUR291 control stock, HRPO-labeled AI-11 1:1000.
The target is the same in test [7]. As to the kind of experiment: ELISA, plate coated with 1/8 dilution of the pUR291 control stock, HRPO-labeled AI-11 1:1000.
The target is the same in test [8]. As to the kind of experiment: ELISA, plate coated with 1/16 dilution of the pUR291 control stock, HRPO-labeled AI-11 1:1000.
Test [9] has the same target. As to the kind of experiment: ELISA, plate coated with 1/32 dilution of the pUR291 control stock, HRPO-labeled AI-11 1:1000.
Test [10] shares this target. Description: ELISA, plate coated with 1/64 dilution of the pUR291 control stock, HRPO-labeled AI-11 1:1000.
Test [11] addresses apo A-I/B-100 fusion protein expressed by plasmid 137 (beta-galactosidase / apo A-I / apo B-100) (human). As to the kind of experiment: ELISA, plate coated with 1/2 dilution of the 137 stock (0.95 ug/100 ul), HRPO-labeled AI-11 1:1000.
For test [12], the target named is control protein from cells containing plasmid pUR291 (beta-galactosidase without an apolipoprotein insert) (Escherichia coli (strain K12)) [β-galactosidase: P00722]. Description: ELISA, plate coated with 1/2 dilution of the pUR291 control stock (395.0 ug/100 ul), HRPO-labeled AI-11 1:1000.
In test [13] the target is apo A-I/B-100 fusion protein expressed by plasmid 137 (beta-galactosidase / apo A-I / apo B-100) (human). As to the kind of experiment: ELISA, plate coated with 1/4 dilution of the 137 stock, HRPO-labeled MB47 1:1000.
The target is the same in test [14]. Description: ELISA, plate coated with 1/8 dilution of the 137 stock, HRPO-labeled MB47 1:1000.
Test [15] shares this target. Description: ELISA, plate coated with 1/16 dilution of the 137 stock, HRPO-labeled MB47 1:1000.
For test [16] the target is unchanged. As to the kind of experiment: ELISA, plate coated with 1/32 dilution of the 137 stock, HRPO-labeled MB47 1:1000.
Test [17] shares this target. Description: ELISA, plate coated with 1/64 dilution of the 137 stock, HRPO-labeled MB47 1:1000.
The target of test [18] is control protein from cells containing plasmid pUR291 (beta-galactosidase without an apolipoprotein insert) (Escherichia coli (strain K12)) [β-galactosidase: P00722]. As to the kind of experiment: ELISA, plate coated with 1/4 dilution of the pUR291 control stock, HRPO-labeled MB47 1:1000.
Test [19] has the same target. As to the kind of experiment: ELISA, plate coated with 1/8 dilution of the pUR291 control stock, HRPO-labeled MB47 1:1000.
For test [20] the target is unchanged. As to the kind of experiment: ELISA, plate coated with 1/16 dilution of the pUR291 control stock, HRPO-labeled MB47 1:1000.
Test [21] shares this target. Description: ELISA, plate coated with 1/32 dilution of the pUR291 control stock, HRPO-labeled MB47 1:1000.
Test [22] has the same target. As to the kind of experiment: ELISA, plate coated with 1/64 dilution of the pUR291 control stock, HRPO-labeled MB47 1:1000.
Test [23] addresses apo A-I/B-100 fusion protein expressed by plasmid 137 (beta-galactosidase / apo A-I / apo B-100) (human). Description: ELISA, plate coated with 1/2 dilution of the 137 stock (0.95 ug/100 ul), HRPO-labeled MB47 1:1000.
Test [24] deals with control protein from cells containing plasmid pUR291 (beta-galactosidase without an apolipoprotein insert) (Escherichia coli (strain K12)) [β-galactosidase: P00722]. As to the kind of experiment: ELISA, plate coated with 1/2 dilution of the pUR291 control stock (395.0 ug/100 ul), HRPO-labeled MB47 1:1000.

Among the data in patent US5786206 are Optical density values, retold here.

For the substance “monoclonal antibody AI-11, secreted by hybridoma AI-11 (ATCC HB 9201)”, the Optical density at 490 nm in [1] is 0.6 OD 490 nm; in test [2] it was 0.2 OD 490 nm; in test [3] it was 0.14 OD 490 nm; in test [4], 0.14 OD 490 nm; in [5], 0.12 OD 490 nm; in test [6] it was 0.08 OD 490 nm. The Optical density at 490 nm in test [7] worked out at 0.08 OD 490 nm; in test [8], 0.07 OD 490 nm; in [9] it was 0.05 OD 490 nm; in [10], 0.04 OD 490 nm; in [11], 1 OD 490 nm; in [12], 0.1 OD 490 nm.
For “monoclonal antibody MB47, secreted by hybridoma MB47 (ATCC HB 8746)”, the Optical density at 490 nm in test [13] came to 0.46 OD 490 nm; in test [14], 0.14 OD 490 nm; in [15] it was 0.1 OD 490 nm; in test [16], 0.1 OD 490 nm; in test [17], 0.08 OD 490 nm; in [18], 0.12 OD 490 nm. The Optical density at 490 nm was 0.1 OD 490 nm in test [19]; 0.04 OD 490 nm in test [20]; 0.02 OD 490 nm in test [21]; 0.01 OD 490 nm in test [22]; 1.3 OD 490 nm in test [23]; 0.1 OD 490 nm in test [24].
